According to patent US20020168358A1, “Treatment of T-cell mediated diseases” (priority 2001, published 2002):

T1: CCR7 (Homo sapiens, UniProt P32248)
T1 construct: The cells were then disrupted with a Polytron homogenizer and centrifuged at 30,000× g for 10 min; endogenous in cells; host or cells: HUT-78 cells (membrane pellet)
T1 sequence (P32248 25-378): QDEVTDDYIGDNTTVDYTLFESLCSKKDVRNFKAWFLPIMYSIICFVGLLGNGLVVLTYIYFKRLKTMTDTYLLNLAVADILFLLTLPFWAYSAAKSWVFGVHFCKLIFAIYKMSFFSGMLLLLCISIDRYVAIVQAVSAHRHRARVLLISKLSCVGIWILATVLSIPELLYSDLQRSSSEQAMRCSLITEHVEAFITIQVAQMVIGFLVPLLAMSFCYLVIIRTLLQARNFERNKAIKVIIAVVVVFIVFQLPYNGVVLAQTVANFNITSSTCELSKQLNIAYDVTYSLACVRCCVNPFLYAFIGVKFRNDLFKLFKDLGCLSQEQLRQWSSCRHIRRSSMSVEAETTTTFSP

B1: MIP-3β: chemokine, macrophage inflammatory protein-3b, ligand of the CCR7 receptor (protein, UniProt Q99731 22-98, looked up)
C-C motif chemokine 19: GTNDAEDCCLSVTQKPIPGYIVRNFHYLLIKDGCRVPAVVFTTLRGRQLCAPPDQPWVERIIQRLQRTSAKMKRRSS
B2: SLC: secondary lymphoid organ chemokine, ligand of the CCR7 receptor (protein, UniProt O00585 24-134, looked up)
C-C motif chemokine 21: SDGGAQDCCLKYSQRKIPAKVVRSYRKQEPSLGCSIPAILFLPRKRSQAELCADPKELWVQQLMQHLDKTPSPQKPAQGCRKDRGASKTGKKGKGSKGCKRTERSQTPKGP
B3: MIP-1β: chemokine tested for comparison in T cell chemotaxis (protein, UniProt P13236 24-92, looked up)
C-C motif chemokine 4: APMGSDPPTACCFSYTARKLPRNFVVDYYETSSLCSQPAVVFQTKRSKQVCADPSESWVQEYVYDLELN
B4: MIP-1α: chemokine tested for comparison in T cell chemotaxis (protein, UniProt P10147 24-92, looked up)
C-C motif chemokine 3: SLAADTPTACCFSYTSRQIPQNFIADYFETSSQCSKPGVIFLTKRSRQVCADPSEEWVQKYVSDLELSA
B5: Tarc: chemokine tested for comparison in T cell chemotaxis (protein, UniProt Q92583 24-94, looked up)
C-C motif chemokine 17: ARGTNVGRECCLEYFKGAIPLRKLKTWYQTSEDCSRDAIVFVTVQGRAICSDPNNKRVKNAVKYLQSLERS
B6: RANTES: chemokine tested for comparison in T cell chemotaxis (protein, UniProt P13501 24-91, looked up)
C-C motif chemokine 5: SPYSSDTTPCCFAYIARPLPRAHIKEYFYTSGKCSNPAVVFVTRKNRQVCANPEKKWVREYINSLEMS

target: T1, CCR7; experiment: Binding assay: 125I-MIP-3β binding to HUT-78 cell membranes (scintillation proximity); conditions: binding assay of Example 1, HUT-78 membranes, read-out: IC50, inhibition of binding of MIP-3β to CCR7
Procedure: HUT-78 cells were cultured in RPMI media with 10% FBS, pen-strep (100 u/ml), L-glutamine (2 mM), HEPES (10 mM) and non-essential amino acids (0.1 mM). The cells were collected by centrifugation at 170× g for 5 min and resuspended to 50×10^ 6 cells/ml in Dulbeccoco's Ca^2+ and Mg^2+ free media containing 8 mg/l aprotinin at 4° C. The cells were then disrupted with a Polytron homogenizer and centrifuged at 30,000× g for 10 min. The pellet was washed 6 times and stored at −80° C.
The binding assay was run in a buffer containing HEPES (50 mM), CaCl2 (1 mM), MgCl2 (5 mM), NaCl (150 mM) and BSA (0.5 mg/ml), pH 7.2. The pellet was resuspended to 8×10^6 cell equivalents/ml and 50 μl was added to microtiter plate wells containing 130 μl of buffer with various concentrations of compounds, and 0.5 mg PEI-treated wheatgerm agglutinin-coated scintillation proximity beads (Amersham). The binding was initiated by the addition of 20 μl of 600 pM ^125I-MIP-3β (New England Nuclear). The microtiter plate was mixed and then the beads were allowed to settle overnight before counting in a Microbeta plus liquid scintillation counter (Wallac).

Molecule	IC50 [nM]
O=S1(=O)COc2cc(NCCCc3cnco3)ccc2N1 [Example 3]	1500
Cc1cc(C)c2c(=O)n(CC(O)CN(C)CC3OCCCO3)sc2c1 (stereo not drawn) [Example 4]	2200

test system: PHA-activated human T cells; experiment: In vitro chemotaxis of T cells (48-well Boyden chamber); type: cell-based; conditions: FIG. 3
Procedure: Lymphocyte and PHA blast chemotaxis to appropriate chemokine was measured using a 48-well Boyden chamber (Neuro Probe Inc., Cabin John, Md.). Agonists were diluted in RPMI media (BioWhittaker, Walkersville, Md.) containing 0.1% bovine serum albumin (Invitrogen, Carlsbad, Calif.) and added to the bottom wells of the chemotaxis chamber. Peripheral mononuclear blood cells were resuspended in RPMI/BSA media at a concentration of 2.5×10^6 cells per ml. Fifty μl of this cell suspension was then added to the upper chamber. A 5 μm PVP-free polycarbonate filter, coated on the bottom with 10 microgram/ml of human type IV collagen (Neuro Probe Inc.), was used to separate the wells of the chamber Chambers were incubated for 60 minutes in a 5% CO2-humidified atmosphere at 37° C. After the incubation period, the filters were removed, the top side was scraped to remove non-migrating cells, and the filters were stained with Diff-Quik stain (Dade Behring AG, Dudingen, Switzerland). The number of PMBC cells migrating was counted by light microscopy. The mean of three high powered fields was then determined. The number of migrating PMBC cells was calculated by subtracting […].

Molecule	chemoattractant activity for PHA-activated human T cells
B1	potent chemoattractants
B2	potent chemoattractants

same assay, conditions: Hut 78 and primary T cells

Molecule	effect on T cell chemotaxis compared with other chemokines
IP-10: chemokine tested for comparison in T cell chemotaxis	minimal effects
MCP-1: chemokine tested for comparison in T cell chemotaxis	minimal effects
MCP-3: chemokine tested for comparison in T cell chemotaxis	minimal effects
B3	minimal effects
B4	minimal effects
B1	most potent T cell chemotactic agents
B5	minimal effects
B2	most potent T cell chemotactic agents
B6	minimal effects

test system: Hut-78 cells; experiment: In vitro chemotaxis of Hut-78 cells; type: cell-based; conditions: FIG. 2

Molecule	chemoattractant activity for Hut-78 cells
B1	potent chemoattractants
B2	potent chemoattractants
